Earlier results as cited in paper PMC10347550, “Cyclic Ruthenium-Peptide Conjugates as Integrin-Targeting Phototherapeutic Prodrugs for the Treatment of Brain Tumors” (Journal of the American Chemical Society, 2023).

Target: fibrinogen (Homo sapiens) (UniProt P02671)
Sequence (P02671 36-866, chain 1 of 3): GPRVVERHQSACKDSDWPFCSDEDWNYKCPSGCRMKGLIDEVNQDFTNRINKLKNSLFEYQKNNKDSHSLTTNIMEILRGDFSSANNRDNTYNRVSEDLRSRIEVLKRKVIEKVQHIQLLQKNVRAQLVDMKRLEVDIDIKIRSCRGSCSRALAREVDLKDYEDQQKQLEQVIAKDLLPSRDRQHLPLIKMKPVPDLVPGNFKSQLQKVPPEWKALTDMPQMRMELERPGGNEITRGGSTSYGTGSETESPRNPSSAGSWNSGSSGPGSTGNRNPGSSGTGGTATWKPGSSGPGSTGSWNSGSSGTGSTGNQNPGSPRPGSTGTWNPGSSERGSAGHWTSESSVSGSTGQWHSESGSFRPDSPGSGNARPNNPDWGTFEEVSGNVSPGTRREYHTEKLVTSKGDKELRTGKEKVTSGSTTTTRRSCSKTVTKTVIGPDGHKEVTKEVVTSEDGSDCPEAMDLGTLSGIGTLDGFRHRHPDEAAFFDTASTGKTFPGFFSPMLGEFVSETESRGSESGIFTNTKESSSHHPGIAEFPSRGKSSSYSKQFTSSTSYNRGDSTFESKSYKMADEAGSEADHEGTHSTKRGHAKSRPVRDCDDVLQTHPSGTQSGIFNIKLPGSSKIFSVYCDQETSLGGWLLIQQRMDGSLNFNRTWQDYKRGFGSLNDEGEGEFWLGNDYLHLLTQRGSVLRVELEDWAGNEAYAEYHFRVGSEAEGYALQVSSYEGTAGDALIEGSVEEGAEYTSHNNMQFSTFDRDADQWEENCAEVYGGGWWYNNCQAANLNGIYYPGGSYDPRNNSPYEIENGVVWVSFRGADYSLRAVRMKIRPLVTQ
Sequence (P02675 45-491, chain 2 of 3, further chain): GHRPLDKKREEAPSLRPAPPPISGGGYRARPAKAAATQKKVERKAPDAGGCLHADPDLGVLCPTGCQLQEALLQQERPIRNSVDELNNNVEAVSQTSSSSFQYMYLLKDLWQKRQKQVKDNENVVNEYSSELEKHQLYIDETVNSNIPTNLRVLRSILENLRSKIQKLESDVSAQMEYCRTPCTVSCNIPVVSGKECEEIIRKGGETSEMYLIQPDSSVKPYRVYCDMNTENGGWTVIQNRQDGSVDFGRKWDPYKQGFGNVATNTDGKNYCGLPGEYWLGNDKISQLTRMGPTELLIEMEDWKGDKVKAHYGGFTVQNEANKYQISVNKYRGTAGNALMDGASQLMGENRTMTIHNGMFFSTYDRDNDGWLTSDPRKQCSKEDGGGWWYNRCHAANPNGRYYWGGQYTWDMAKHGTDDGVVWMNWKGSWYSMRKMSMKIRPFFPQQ
Sequence (P02679 27-453, chain 3 of 3, further chain): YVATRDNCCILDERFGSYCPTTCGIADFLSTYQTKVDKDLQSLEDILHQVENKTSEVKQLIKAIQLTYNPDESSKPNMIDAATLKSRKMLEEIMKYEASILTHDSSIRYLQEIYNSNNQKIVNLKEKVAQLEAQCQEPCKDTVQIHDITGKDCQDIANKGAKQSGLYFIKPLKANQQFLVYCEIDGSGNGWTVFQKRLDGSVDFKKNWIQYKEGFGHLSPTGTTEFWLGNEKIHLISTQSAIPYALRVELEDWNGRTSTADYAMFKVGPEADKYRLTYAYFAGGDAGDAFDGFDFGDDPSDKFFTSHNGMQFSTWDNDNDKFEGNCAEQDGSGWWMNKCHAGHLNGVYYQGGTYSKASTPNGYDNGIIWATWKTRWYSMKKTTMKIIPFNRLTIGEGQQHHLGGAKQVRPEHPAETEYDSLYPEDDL

Kd: 30 nM
Substance: integrin αIIbβ3 (from UniProt P08514)
